{"source": "patent US20140018288A1", "about": "“X-DING-CD4 Peptide” (priority 2012, published 2014)", "key": {"NL4-3 HIV-1 isolate": {"test_system": "NL4-3 HIV-1 isolate", "test": "MAGI assay of HIV-1 replication in MAGI-CCR-5 cells", "format": "cell-based", "conditions": "MAGI-CCR-5 cells, NL4-3 HIV-1", "procedure": "The antiviral activity of rX-DING-CD4^pep was tested by MAGI assay. […] Subsequently, cells were exposed to rX-DING-CD4^pep treatment in the presence of DMEM supplemented with 5% fetal bovine serum, antibiotics, glutamate and […] DEAE dextran. […] Replication of virus was evaluated forty eight hours later after fixation of cells with 1% formaldehyde and 0.2% glutaraldehyde in PBS. Expression of β-galactosidase was visualized by 50 min exposure to X-GAL (5-bromo-4-chloro-3-indolyl-β-D-galactopyranoside), 0.4 mg/ml 2 mM MgCl2, 4 mM potassium ferricyanide at 37° C. After enumeration of the infected (blue) cells, all cells were lysed and subjected to the protein assay (Bio-Rad). All data were adjusted by total protein concentration and anti-viral activity was calculated as percent inhibition. The infected untreated and uninfected cells served as (+) and (−) controls to calculate 100% virus infectivity. The inhibition values for HIV-1 replication were calculated based on the formula [(R1−R0)×100/Z]-100; where R1 is the value obtained from cells infected by HIV-1 and treated with specific dilution of X-DING-CD4^pep and R^0 is the basal value obtained from the uninfected and untreated cells; Z is the absolute HIV-1 replication value calculated as Z═Rmax−R0, where Rmax is the value representing 100% of HIV-1 replication in X-DING-CD4^pep untreated cells."}, "[1]": {"test": "Acute toxicity after intraperitoneal injection in mice", "format": "in vivo, mice (B6/SJL)", "conditions": "1-50 μg rX-DING-CD4^pep or 50 μg nX-DING-CD4, 7 days", "procedure": "In the animal tests, eight-week old wild-type mice (B6/SJL) with both genders in each test group were injected intraperitoneally with 1-50 μg of rX-DING-CD4^pep or 50 μg nX-DING-CD4. The nX-DING-CD4 refers to the native form of X-DING-CD4 protein that was purified through IXC chromatography from the extracellular compartment of HIV-1 resistant T-cells. The rX-DING-CD4^pep refers to therapeutic X-DING-CD4 peptide that was expressed in E. coli and purified through Ni-affinity column. Toxicity was assessed by obvious symptoms including diarrhea, ruffled fur, abnormal gait, or loss of more than 10% weight. Animals were weighted before injection and then observed every hour for the first 10 hours after injection; then animals were weighted on 1, 3, 4 and 7 days after X-DING-CD4 administration. […] In its highest administered dose (50 μg—corresponding to 2 μg/G) we exceeded therapeutic dose blocking 95% of HIV promoter activity (by RSA assays) and 90% virus replication (by MAGI assays) (See FIGS. 2 & 3 in Example 2)."}, "[2]": {"test_system": "EcoHIV (ecotropic HIV-1 EcoNDK)", "test": "EcoHIV mouse model of HIV infection, Tat and Vif mRNA by qRT-PCR", "format": "in vivo, C57BL mice", "conditions": "two intraperitoneal doses of 20 μg", "description": "The mouse model of HIV infection is well-known by persons skilled in the art and is widely used to study therapeutic activities of various pharmaceutical agents. It was generated by using chimeric HIV (EcoHIV), which is a modified HIV that can infect mouse T cells and macrophages and can establish persistent infection of immunocompetent mice after intravenous or intraperitoneal exposure (Potash et al., 2005). The EcoHIV infection mouse model reproduces many characteristics of HIV-1 infection in humans such as virus targeting to lymphocytes and macrophages, induction of antiviral immune responses, neuroinvasiveness, and elevation of expression of inflammatory and antiviral factors in the brain (Potash et al., 2005). […]\nIn this example, we started with three groups of C57BL mice (groups I, II and III), each group having three mice. […] The amount of EcoHIV-1 virus load was assessed by determining the messenger RNA (mRNA) levels of HIV-Tat and Vif genes by quantitative RT-PCR (qRT-PCR). The amount of HIV-1 Gag DNA in the each sample, which was also determined by qRT-PCR, was used as a quantitative control for the HIV-Tat and Vif mRNA levels. […]"}, "X-DING-CD4 mRNA": {"test_system": "X-DING-CD4 mRNA", "test": "Induction of X-DING-CD4 mRNA expression in 1G5 cells (qRT-PCR)", "format": "cell-based", "conditions": "6 hours, 200 ng/ml", "procedure": "The sX-DING-CD4 may be released from the macropinosome to endoplasmic reticulum (ER) and cause induction of IFNα, which in turn induces the expression of X-DING-CD4 mRNA and endogenous X-DING-CD4 protein (step 2). The induction of X-DING-CD4 mRNA by sX-DING-CD4 was tested in 1G5 cells. Briefly, three groups of 1G5 cells were treated for 6 hours with NL4-3 HIV-1 at MOI of 0.1, 200 ng/ml native X-DING-CD4 protein, and 1-126 rX-DING-CD4 peptide (i.e., rX-DING-CD4^pep), respectively. […] The eX-DING-CD4, derived from the newly synthesized X-DING-CD4, binds CN and is transported into the nucleus where it blocks LTR transcription (steps 2-7).\nTwo peptide fragments from the N-terminal region of X-DING-CD4 were synthesized and their activities in inducing IFN-α and X-DING-CD4 mRNA expressions were determined by qRT-PCR. The concentration of proteins used in the assays was 200 ng/ml except for the combination of XD-1 and XD-4 where we used 100 ng/ml of each peptide. The 1-126 rX-DING-CD4 and peptide C3 p16 served as positive and negative controls, respectively. The C3 Peptide P16 was derived from the C3d component of serum complement. C3 Peptide P16 regulates B cells, but not T cells, through interacting with the gp140 C3d receptor (CR2)."}}, "data": [{"molecule": "MADINGGGATLPQPLYQTSGVLTAGFAPYIGVGSGKGKLAFLNNDYSQFGTGTKNVHWAGSDSKLTSTELSTYASTKQAAWGKLIQVPSVATSVAIPFNKAGSNAVDLSVDQLCGVFSGRITTWNQ (protein, listed as Homo sapiens) MADINGGGATLPQPLYQTSGVLTAGFAPYIGVGSGKGKLAFLNNDYSQFGTGTKNVHWAGSDSKLTSTELSTYASTKQAAWGKLIQVPSVATSVAIPFNKAGSNAVDLSVDQLCGVFSGRITTWNQ", "values": [{"measurement": "IC50", "setting": "NL4-3 HIV-1 isolate", "value": 18.9, "unit": "nM"}, {"measurement": "IC80", "setting": "NL4-3 HIV-1 isolate", "value": 151, "unit": "nM"}, {"measurement": "obvious symptoms of toxicity (diarrhea, ruffled fur, abnormal gait)", "setting": "[1]", "value": "Neither of rX-DING-CD4^pep treatment nor nX-DING-CD4 treatment caused any obvious symptoms"}, {"measurement": "expression of EcoHIV Tat mRNA and vif mRNA versus saline or heat inactivated peptide", "setting": "[2]; 48 hours", "value": "decreased expression"}, {"measurement": "transcription of EcoHIV blocked", "setting": "[2]; two days after infection", "value": 75, "unit": "%"}, {"measurement": "expression of X-DING-CD4 mRNA", "setting": "X-DING-CD4 mRNA", "value": "induced expression of X-DING-CD4 mRNA"}]}]}
